Patent US20130263297A1, “METHODS OF TREATING CANCER” (Cedars-Sinai Medical Center, priority 2010, published 2013)
Entries after “also recorded” stand apart in the source; their conditions may differ.

B1: RANKL: trimerized recombinant RANKL protein (rRANKL), receptor activator of NF-KB ligand (protein, UniProt O14788 69-317, looked up)
extracellular domain: YFRAQMDPNRISEDGTHCIYRILRLHENADFQDTTLESQDTKLIPDSCRRIKQAFQGAVQKELQHIVGSQHIRAEKAMVDGSWLDLAKRSKLEAQPFAHLTINATDIPSGSHKVSLSSWYHDRGWAKISNMTFSNGKLIVNQDGFYYLYANICFRHHETSGDLATEYLQLMVYVTKTSIKIPSSHTLMKGGSTKYWSGNSEFHFYSINVGGFFKLRSGEEISIEVSNPSLLDPDQDATYFGAFKVRDID
modifications: extracellular domain trimerized

Tests used:
Type in all cases: cell-based, human
[1] = test system: RANKL promoter in LNCaP and LNCaP-RANKL cells; assay: RANKL promoter reporter assay, LNCaP model
LNCaP cells = assay: EMT marker / RANKL expression and signaling by RT-PCR and Western blot, LNCaP model
Procedure: Total RNA from cells was isolated using RNeasy Mini Kit (Qiagen, Valencia, Calif.) according to manufacturer's instructions. Complementary DNA (cDNA) was generated from 3 μg of total RNA using SuperScript® III First-Strand Synthesis System (Invitrogen, Carlsbad Calif.), and 1 μl of cDNA was subjected to PCR analyses using the following primers: RANKL F: 5′-TGGATCACAGCACATCAGAGCAG-3′ (SEQ ID NO:3); RANKL R: 5′-TGGGGCTCAATCTATATCTCGAAC-3′ (SEQ ID NO:4); RANK F: 5′-GGGAAAGCACTCACAGCTAATTTG-3′ (SEQ ID NO:5); RANK R: 5′-GCACTGGCTTAAACTGTCATTCTCC-3′ (SEQ ID NO:6); OPG F: 5′-GCT AAC CTC ACC TTC GAG-3′ (SEQ ID NO:7); OPG R: 5′-TGA TTG GAC CTG GTT ACC-3′ (SEQ ID NO:8); E-cadherin F: 5′-GCCAAGCAGCAGTACATTCTACACG-3′ (SEQ ID NO:9); E-cadherin R: 5′-GCTGTTCTTCACGTGCTCAAAATCC-3′ (SEQ ID NO:10); N-cadherin F: 5′-GATGTTGAGGTACAGAATCGT-3′ (SEQ ID NO:11); N-cadherin R: 5′-GGT CGG TCT GGA TGG CGA-3′ (SEQ ID NO:12); Snail F: 5′-CAGACCCACTCAGATGTCAA-3′ (SEQ ID NO:13); Snail R: 5′-CATAGTTAGTCACACCTCGT-3′ (SEQ ID NO:14); Vimentin F: 5′-GGA CTC GGT GGA CTT CTC-3′ (SEQ ID NO:15); Vimentin R: 5′-CGC ATC TCC TCC TCG TAG-3′ (SEQ ID NO:16). The PCR reaction cycles involved an initial denaturation at 94° C. for 10 min, followed by 36 cycles of 94° C., 1 min; 55° C., 30 sec for RANKL and RANK and 48° C., 1 min for OPG; 72° C., 1 min and a final extension at 72° C. for 10 min. For E-cadherin and N-cadherin gene amplification, the PCR reactions ran for a total of 32 cycles and the annealing temperature was 55° C. and 47° C., respectively for 30 sec. For Snail, Vimentin, and GAPDH amplification, the PCR reactions ran for a total of 28 cycles with annealing temperatures at 48° C. for 30 sec. The amplified PCR products were detected and analyzed on 1% agarose gel.
ARCaPE and LNCaP cells were cultured in 6-well plate and at 70% confluency, the cells were serum-starved overnight and then treated with 200 ng/ml of trimerized RANKL in serum-free and phenol-red free RPMI-1640 medium for three days before harvesting the cells. ARCaPE-RANKL and LNCaP-RANKL cells were cultured in 6-well plate and treated with 20 μM of LY294002, a PI3K inhibitor, 20 μM of SB203580, an inhibitor of MAP kinase reactivating kinase, or 2 μM of PS341 (bortezomib), a proteasome inhibitor, at 90% confluency for four hours. Cells were lysed in RIPA buffer containing 1× protease inhibitor cocktail (Thermo Fisher Scientific, Waltham, Mass.) and centrifuged, and the supernatants were collected and quantified using Bradford Protein Assay (Thermo Fisher Scientific, Waltham, Mass.). Cell lysates (20-30 μg) were resolved on a 4-12% Bis-Tris gradient SDS-PAGE (Invitrogen, Carlsbad, Calif.) under reducing conditions, followed by transblotting onto nitrocellulose membrane (BioRad, Hercules, Calif.). The membranes were blocked in 5% non-fat milk in PBST for one hour at room temperature (RT) and incubated with diluted primary antibodies in blocking buffer at 4° C. overnight. The primary antibodies used were RANKL, E-cadherin, vimentin, and OPG (Santa Cruz Biotechnology, Inc., Santa Cruz, Calif.), RANK (Amgen, Thousand Oaks, Calif.), N-cadherin (BD Transduction Laboratories, San Jose, Calif.), phosphor-Akt (Ser 473), Akt, phosphor-p38 (Thr180/Tyr182), p38, phosphor-ERK1/2 (Thr202/Tyr204), ERK, phosphor-SAPK/JNK (Thr183/Tyr185), JNK, phosphor-NF-κB p65 (Ser536), and NF-κB p65 (Cell Signaling Technology, Danvers, Mass.). The membranes were washed with PBST for three times before incubating with peroxidase-conjugated anti-mouse or anti-rabbit secondary antibodies at RT for one hour. After three times washing, the membranes were visualized using ECL Plus reagent (GE Healthcare, Piscataway, N.J.).

cMet in LNCaP cells = assay: cMet expression and phosphorylation (Western blot), LNCaP
[2] = test system: RANKL promoter in ARCaPE, ARCaPM and ARCaPE-RANKL cells; assay: RANKL promoter reporter assay, ARCaP model
Source text: Because the inventors are interested in how RANKL is transcriptionally regulated, the inventors have constructed a 2.5 kb 5′ upstream region of RANKL promoter. The inventors used BAC clones (RP11-86N24) to amplify the promoter region of RANKL from human chromosome 13 contig. The whole promoter region (2.5 kb) was then cloned into pGL3 basic luciferase reporter vector. The inventors placed RANKL promoter reporter into ARCaPE,M, C4-2, and a positive cell line, SaOS-2 to examine the basic promoter activity. Then, the inventors stimulated the RANKL promoter by various growth factors, such as vitamin D3, PTH, and TGFβ.

Molecule | increased RANKL promoter activity in LNCaP-RANKL cells ([1]; OPG treatment) | RANKL-induced RANKL expression in LNCaP cells (LNCaP cells; addition of OPG) | RANKL-induced biochemical EMT changes in LNCaP cells (LNCaP cells; addition of OPG) | RANKL- or HGF-induced cMet expression and phosphorylation in LNCaP cells (cMet in LNCaP cells; OPG (vs RANKL) or anti-HGF antibody (vs HGF) treatment) | RANKL promoter activity in ARCaPM cells ([2]; OPG treatment) | increased RANKL promoter activity in ARCaPE-RANKL cells ([2]; OPG treatment) | RANKL promoter activity in LNCaP cells ([1]; RANKL treatment) | RANKL expression at mRNA and protein levels in LNCaP cells (LNCaP cells; RANKL treatment) | nuclear levels of cMyc and Max in LNCaP cells (LNCaP cells; RANKL-treated versus LNCaP cells) | induction of EMT (EMT-specific markers) in LNCaP cells (LNCaP cells; exogenously added RANKL, 200 ng/ml) | phosphorylation of PI3K/Akt, P38 and NFκB proteins in parental LN cells (LNCaP cells; treated with RANKL protein) | cMet expression and phosphorylated level of cMet in LNCaP cells (cMet in LNCaP cells; exogeneous RANKL or HGF treatment) | RANKL promoter activity in ARCaPE and ARCaPM cells ([2]; RANKL treatments)
osteoprotegerin [OPG] | attenuated | attenuated | abolished | abrogated | dampen | attenuated |  |  |  |  |  |  | 
B1 |  |  |  |  |  |  | induction | induced; also recorded: up-regulated | higher | confirmed; also recorded: decreased epithelial marker E-cadherin and increased mesenchymal marker vimentin, N-cadherin, and Snail | elevated | significantly increased | induced
